Tests used:
[1] = tested on: MDA-MB-231 tumor; test: In vivo IVIS fluorescence imaging, MDA-MB-231 tumor-bearing mice; set-up: species or system Balb/c nude mice; conditions: 25 μM NGF, 200 μL i.v., imaging up to 72 h
Procedure: (§1) The SPF female Balb/c nude mice (4–5 weeks old) were obtained from Changzhou Cavens Laboratory Animal Co., LTD (Changzhou, China). Tumor models were created by subcutaneously injecting 0.5 ~ 1 × 10^7 MDA-MB-231, HCT116 or NCI-H1299 cells in 100 μL PBS into the right forelimb of the nude mice. Imaging studies were conducted once the tumor volume reached approximately 100 mm^3. All animal experiments requiring the use of mice were approved by the animal care committee of Shanghai University (ECSHU 2024–004).
(§2) Animal fluorescence imaging was conducted using an IVIS Imaging spectroscopy system (PerkinElmer Inc., USA). MDA-MB-231, HCT116, and NCI-H1299 tumor-bearing mice (n = 3–5) were intravenously injected with 25 μM NGF (200 μL) via the tail vein. Following injection, mice were anesthetized with a 2% v/v isoflurane/oxygen mixture at a flow rate of […] to maintain stable physiological conditions during imaging. Subsequently, long-term optical imaging observations of tumor-bearing mice were performed using the IVIS Spectrum imaging system (PerkinElmer, USA). Imaging scans were conducted at various time points (1, 2, 4, 6, 8, 12, 24, 36, 48, 60, and 72 h) after NGF administration. The excitation wavelength (λex) was set to 745 nm and the emission wavelength (λem) was set to 840 nm for optimal fluorescence signal acquisition.

[2] = Photophysical properties (absorption, emission, ε, ΦF); assay type: physicochemical
Procedure: To investigate the spectral characteristics of probe, NGF (25 μM) was prepared using methanol, and the NGF stock solution was diluted to various concentrations (0.5, 1, 2, 3, and 4 μM) with both methanol or water as solvents. The absorption spectra at various concentrations were recorded using a UV–vis absorption spectrometer. To better understand how the solvent affects the fluorescence properties of NGF, the fluorescence emission spectra of 4 μM NGF were analyzed in both methanol and water. The molar absorption coefficient (ε), fluorescence quantum yield (ΦF), as well as the stability of NGF were investigated, and the details were provided in the Supporting Information.
where, Ix is the measured integrated emission intensity; η is the refractive index of the solvent; A is the absorbance of the solution; the subscript x denotes the probe; st denotes the reference compound.

[3] = tested on: NCI-H1299 tumor; test: In vivo IVIS fluorescence imaging, NCI-H1299 tumor-bearing mice; set-up: species or system Balb/c nude mice; conditions: 25 μM NGF, 200 μL i.v., n = 3–5
Procedure: as §1, §2

[4] = Photostability of NGF under laser irradiation; assay type: physicochemical; conditions: 3 μM in methanol, laser irradiation 30 min, UV-vis absorbance A/A0
[5] = In vivo IVIS fluorescence imaging, signal clearance and persistence in tumor-bearing mice; set-up: species or system Balb/c nude mice; conditions: 25 μM NGF, 200 μL i.v.
Procedure: as §1, §2

[6] = Procedure: Probe NGF (10 μM) was added to a mixture of H2O (0.5 mL) and n-octanol (0.5 mL), shaken thoroughly, and centrifuged for 3 min. The absorbance (A) of NGF in both H2O and n-octanol was measured using a UV-vis absorption spectrometer.
[7] = 3 μM in 10% (v/v) mouse serum, 37°C, 48 h incubation, UV-vis absorbance A/A0
Procedure: NGF solution (3 μM) was prepared in PBS and 10% (v/v) mouse serum, and the initial absorbance (A0) was measured. Then NGF was incubated with PBS and mouse serum at 37°C, and the absorbance (A) was recorded at 4, 8, 12, 24, and 48 h, respectively. The stability of the probe was evaluated based on the ratio of A/A0. For the photostability, NGF solution (3 μM) was prepared in methanol, and the initial absorbance (A0) was measured. Then NGF was then subjected to laser irradiation, and the absorbance measurements (A) were recorded at 5, 10, 15, 20, and 30 min, respectively. The stability of the probe was evaluated based on the ratio of A/A0.

[8] = tested on: HCT116 tumor; test: In vivo IVIS fluorescence imaging, HCT116 tumor-bearing mice; set-up: species or system Balb/c nude mice; conditions: 25 μM NGF
Procedure: as §1, §2

[9] = Aqueous stability of NGF in PBS; assay type: physicochemical; conditions: 3 μM in PBS, 37°C, 48 h incubation, UV-vis absorbance A/A0
[10] = tested on: HCT116 cells; test: Flow cytometry / confocal imaging and blocking study in HCT116 cells; assay type: cell-based, human
Procedure: (§3) MDA-MB-231, HCT116, and NCI-H1299 cells in logarithmic growth phase were seeded in 6-well plate and incubated at 37 ℃ in a 5% CO2 humidified incubator for 12 h, then the cells were fixed with 4% paraformaldehyde containing 1% TritonX-100 overnight at 4 ℃. Next, cells were treated with NGF (2 μM) for 1 h, stained with DAPI for 5 min, and finally the fluorescent images were captured using laser scanning fluorescence confocal microscopy (Olympus IX51). Images were captured using a U-LH100 HG mercury lamp with a WIY (Cy5 channel) filter and a 200 ms exposure time. A 10 × eyepiece and a 20 × objective were used for a total magnification of 200 × . A scale bar of 50 μm was included for reference.
(§4) Cancer cells MDA-MB-231, NCI-H1299 and HCT116 in logarithmic growth phase were harvested and transferred to sterile tubes with DMEM medium at a density of 2 × 10^5 cells per tube. […] Subsequently, the cells were resuspended in 0.5 mL of PBS buffer, and about 2 × 10^4 target cells were extracted for flow cytometry analysis (FACS Verse, BD) with FL4 channel, and the mean fluorescence intensity was quantified using FlowJo software.
(§5) For the blocking study, the cells of HCT116, NCI-H1299, and MDA-MB-231 were pretreated with the D-glucose (50 μM), NRP1 peptide (50 μM), and D-glucose + NRP1 peptide (50 μM) for 30 min. […] Then the fluorescence signals were detected by flow cytometry and microscopy imaging.

[11] = tested on: NCI-H1299 cells; test: Confocal fluorescence imaging in NCI-H1299 cells; assay type: cell-based, human; conditions: NCI-H1299 (NRP1- and GLUT1-negative), NGF 2 μM, 1 h
Procedure: as §3
Cancer cells MDA-MB-231, NCI-H1299 and HCT116 in logarithmic growth phase were harvested and transferred to sterile tubes with DMEM medium at a density of 2 × 10^5 cells per tube. Various concentrations of NGF (0.125, 0.25, 0.5, 1, and 2 μM) were added, and the cells were incubated in a humidified incubator with 5% CO2 at 37 ℃ for 1 h. Subsequently, the cells were resuspended in 0.5 mL of PBS buffer, and about 2 × 10^4 target cells were extracted for flow cytometry analysis (FACS Verse, BD) with FL4 channel, and the mean fluorescence intensity was quantified using FlowJo software.

[12] = tested on: MDA-MB-231 cells; test: Flow cytometry / confocal imaging and blocking study in MDA-MB-231 cells; assay type: cell-based, human
Procedure: as §3, §4, §5

CC(C)C[C@H](NC(=O)[C@H](C)NC(=O)CCOCCOCCOCCOCCn1cc(CCC[N+]2=C(C=CC3=C(Cl)C(=CC=C4N(CCCc5cn([C@H]6C(O)O[C@H](CO)[C@@H](O)[C@@H]6O)nn5)c5ccccc5C4(C)C)CCC3)C(C)(C)c3ccccc32)nn1)C(=O)N[C@@H](CCCCN)C(=O)N[C@@H](C)C(=O)N[C@@H](CC(=O)O)C(=O)N[C@@H](CCCCN)C(=O)O (some centres unmarked) [NGF]
retention in tumor post-injection [1]: at least 72 h | fluorescence intensity in methanol ([2]; 4 μM in methanol): 12365 a.u. | maximum absorbance ([2]; 4 μM in methanol): 1.06 | absorption peak (λmax) in MeOH ([2]; MeOH): 783 nm | fluorescence emission peak (λem) in MeOH ([2]; MeOH, λex = 750 nm): 807 nm | aggregation in aqueous solution ([2]; inferred from lower absorbance and fluorescence in H2O than in MeOH): some degree of aggregation | extinction coefficient ε in n-octanol ([2]; n-octanol): 124367 M⁻¹ cm⁻¹ | tumor fluorescence intensity [3]: comparatively weak | absorbance as % of A0 after laser irradiation [4]: 56.7% | time for fluorescent signal to clear from non-target organs [5]: ≤ 12 h | logP [6]: -0.95 ± 0.07 | absorbance as % of initial absorbance (A0) in 10% mouse serum [7]: 95.2% | time post-injection at which tumor could be clearly identified ([8]; 200 μL i.v. tail vein, n = 3–5, λex 745 nm / λem 840 nm): 1 h | retention in tumor post-injection ([8]; 200 μL i.v., imaging up to 72 h): at least 72 h | absorbance as % of initial absorbance (A0) in PBS [9]: 97.7% | uptake relative to mono-receptor block conditions ([10]; HCT116, NGF 2 μM 1 h, pre-treatment 30 min with D-glucose (50 μM) or NRP1 peptide (50 μM), flow cytometry mean fluorescence intensity): 1.4–1.5 times | cellular internalization (confocal fluorescence) ([10]; HCT116, NGF 2 μM, 1 h): substantial internalization | cellular fluorescence (confocal) [11]: minimal fluorescence | uptake relative to mono-receptor block conditions ([12]; MDA-MB-231, NGF 2 μM 1 h, pre-treatment 30 min with D-glucose (50 μM) or NRP1 peptide (50 μM), flow cytometry mean fluorescence intensity): 1.7–2.5 times | cellular internalization (confocal fluorescence) ([12]; MDA-MB-231, NGF 2 μM, 1 h): significantly internalized

From publication PMC12062102, “Dual Targeting of Neuropilin-1 and Glucose Transporter for Efficient Fluorescence Imaging of Cancer” (Molecular Imaging and Biology, 2025)
